Test results reported in patent publication US20110055976.

System: SUMO1-trypsinogen fusion, chloroplast-targeted, extracted from N. benthamiana leaves and refolded
Sequence (chain, as listed by the source): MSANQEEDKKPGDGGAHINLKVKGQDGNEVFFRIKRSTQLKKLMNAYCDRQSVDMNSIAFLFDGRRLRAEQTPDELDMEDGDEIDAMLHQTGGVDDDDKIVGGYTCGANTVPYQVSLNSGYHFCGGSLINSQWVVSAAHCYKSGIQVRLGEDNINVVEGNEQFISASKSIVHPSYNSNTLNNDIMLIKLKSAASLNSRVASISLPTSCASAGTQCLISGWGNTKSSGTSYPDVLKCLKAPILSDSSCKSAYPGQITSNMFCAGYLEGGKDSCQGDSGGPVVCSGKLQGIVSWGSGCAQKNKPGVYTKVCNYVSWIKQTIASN

In the case of enterokinase (Sigma, cat. no. E0885), the “kinetics of BAPNA cleavage (absorption at 405 nm) after enterokinase treatment of the folding reaction” value was “refolded and enterokinase-treated SUMO1-trypsinogen fusion produces active trypsin capable of digesting the substrate BAPNA”.
